These results are taken from article PMC8842248 (Journal of Medicinal Chemistry, 2022).

*: point of attachment. fluorescein = fluorescein label on the N-terminus; Farnesyl = CC(C)=CCC/C(C)=C/CC/C(C)=C/C*; FAM = fluorescein

Holding throughout (conditions): both partners purified
The target of one assay is T1, PDE6D M20K, untagged (UniProt O43924 1-150, M20K).
T1 construct: PDE6D with M20K; Printed as 'untagged PDE6D.M20K' in the pulldown and release assay; also called attenuated PDE6D
Briefly: fluorescence polarisation; fluorescein-labeled KRAS S3I1 peptide at 5 nM, PDE6D 0-512 nM in twofold dilutions; 20 mM Tris pH 7.5, 150 mM NaCl, 2 mM DTT; quadratic fit in GraFit. A general note: Fluorescence polarisation rises when a labelled molecule tumbles more slowly, as on binding a larger partner.

For assay [1], the target named is T2, PDE6D (phosphodiesterase 6 delta), wild type, polyhistidine tag removed (UniProt O43924 1-150).
T2 construct: Cloned into pRSF-Duet and pBDDB-SPR3; also called PDE6D WT; WT PDE6D; source: E. coli BL21 DE3, purified (HisTrap, TEV protease, reverse HisTrap, Superdex S75)
The description is as above.

Assay [2] has as its target T2, PDE6D (phosphodiesterase 6 delta), wild …. Briefly: fluorescence polarisation; fluorescein-…(OMe)-Far at 500 nM, PDE6D 20 to 0.156 μM in twofold dilutions, without or with compound at 500 μM; 20 mM Tris pH 7.5, 150 mM NaCl, 2 mM DTT, 5% DMSO.

B1: KRAS S3I1 peptide, fluorescein-DGKKKKKKSSTIC(OMe)-farnesyl (peptide)
peptide: fluorescein-DGKKKKKKSSTIC(Farnesyl)-OMe
notes: also called KRAS S3I1 variant; source: synthetic peptide (JPT Innovative Peptide Solutions)
In general, Kd refers to the concentration at which binding is half-saturated. Higher therefore signals lower affinity. For B1, the Kd was determined as 2.62 ± 1.7 nM in the assay with PDE6D M20K, untagged and 0.05 nM in assay [1].

B2: fluorescein-labeled KRAS HVR peptide, FAM-KKKKKKSKTKC(OMe)-Far (peptide)
peptide: {FAM}-KKKKKKSKTKC(Farnesyl)-OMe
notes: wild-type KRAS (KRAS4B) HVR peptide ending at the farnesylated C185; also called KRAS WT peptide
Consider B2, for which the binding result in assay [2] is recorded as “binds”.
